Molecular target: KIR2DL1 on human NK cell clones (human) (UniProt P43626)
Assay: cell-based or functional assay

UniProt P43626, sequence (P43626 22-348): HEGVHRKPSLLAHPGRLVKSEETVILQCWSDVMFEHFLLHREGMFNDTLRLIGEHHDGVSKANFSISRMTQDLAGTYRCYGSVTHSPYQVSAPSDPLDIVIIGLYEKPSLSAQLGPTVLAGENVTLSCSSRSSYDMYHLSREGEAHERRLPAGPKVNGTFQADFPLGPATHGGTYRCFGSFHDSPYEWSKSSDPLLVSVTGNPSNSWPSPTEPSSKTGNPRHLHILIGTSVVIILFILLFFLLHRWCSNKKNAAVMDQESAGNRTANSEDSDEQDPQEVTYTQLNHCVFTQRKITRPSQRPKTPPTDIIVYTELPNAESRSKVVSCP

Q: With “EB6 monoclonal antibody (IgG1, anti KIR2DL1)” as the substance, how does the lysis of autologous Cw4+ PHA blasts by NK cells with Campath read?
A: > 30%
